Measurements as given in paper PMC13218723, “A novel RAB5 binding site in human VPS34-CII that is likely the primordial site in eukaryotic evolution” (eLife, 2026).
Several values for one entry are separate records, joined by “and”; a condition that tells them apart may be missing. Identical values can stand only once.

What was measured:
[1] = biological target: mCherry-tagged human VPS34-CII with VPS34 199-REIE-202>199-AAAA-202 (human, UniProt Q8NEB9 1-887; Q99570 1-1358; Q14457 1-450; Q9P2Y5 1-699, 199-REIE-202>199-AAAA-202)
[2] = biological target: T1, mCherry-tagged human VPS34 complex II (VPS34-CII), wild type (human, UniProt Q8NEB9 1-887; Q99570 1-1358; Q14457 1-450; Q9P2Y5 1-699); experiment: confocal microscopy bead-based binding assay; RFP-trap agarose beads coated with 2 µM mCherry-tagged VPS34 complex (or mCherry alone); AF488-labelled RAB protein added at varying concentrations; 20 mM HEPES pH 8.0, 100 mM NaCl, 0.5 mM TCEP; 30 min on ice; AF488 normalised by mCherry intensity; fit 'One site - specific binding'; conditions: both partners purified
T1 construct: human VPS34 (class III PI3K), full length, untagged; human VPS15, full length, with C-terminal 3xTEV-ZZ removed by TEV; human BECLIN1, full length; human UVRAG, full length, untagged; Held on RFP-trap beads by the mCherry on BECLIN1; also called mCherry-VPS34-CII; WT VPS34-CII; source: Expi293 cells, transfected; purified (IgG beads, TEV cleavage, S200 gel filtration); not shown: ZZ (protein A), …

[3] = biological target: T2, mCherry-tagged human VPS34-CII with VPS34 199-REIE-202>199-AAAA-202 (human, UniProt Q8NEB9 1-887; Q99570 1-1358; Q14457 1-450; Q9P2Y5 1-699, 199-REIE-202>199-AAAA-202); experiment: as above; conditions: both partners purified
T2 construct: human VPS34, full length, untagged, REIE to AAAA in C2 HH helix 2; human VPS15, full length, with C-terminal 3xTEV-ZZ removed by TEV; human BECLIN1, full length; human UVRAG, full length, untagged; also called VPS34-CII REIE >AAAA; source: Expi293 cells, transfected; purified (IgG beads, TEV cleavage, S200 gel filtration); not shown: ZZ (protein A), C-terminal, cleaved; mCherry, N-terminal, kept; …

[4] = biological target: T3, mCherry-tagged human VPS34-CII with VPS34 199-REIE-202>199-ERIR-202 (human, UniProt Q8NEB9 1-887; Q99570 1-1358; Q14457 1-450; Q9P2Y5 1-699, R199E | E200R | E202R); experiment: as above; conditions: both partners purified
T3 construct: human VPS34, full length, untagged, R199E E200R E202R; human VPS15, full length, with C-terminal 3xTEV-ZZ removed by TEV; human BECLIN1, full length; human UVRAG, full length, untagged; also called VPS34-CII REIE >ERIR; reverse charge mutant; source: Expi293 cells, transfected; purified (IgG beads, TEV cleavage, S200 gel filtration); not shown: ZZ (protein A), C-terminal, cleaved; mCherry, …

[5] = biological target: T4, mCherry-tagged human VPS34-CII with VPS15 579-SHMIT-583>579-DDMIE-583 (human, UniProt Q8NEB9 1-887; Q99570 1-1358; Q14457 1-450; Q9P2Y5 1-699, S579D | H580D | T583E); experiment: as above; conditions: both partners purified
T4 construct: human VPS34, wild type; human VPS15, full length, S579D H580D T583E, with C-terminal 3xTEV-ZZ removed by TEV; human BECLIN1, full length; human UVRAG, full length, untagged; also called VPS34-CII VPS15 mutant; VPS15 mut; source: Expi293 cells, transfected; purified (IgG beads, TEV cleavage, S200 gel filtration); not shown: ZZ (protein A), C-terminal, cleaved; mCherry, N-terminal, kept; copies: + …

[6] = biological target: T5, mCherry-tagged human VPS34 complex II, wild type (VPS34, VPS15, mCherry-BECLIN1, UVRAG) (human, UniProt Q8NEB9 1-887; Q99570 1-1358; Q14457 1-450; Q9P2Y5 1-699); experiment: confocal microscopy bead-based binding assay; mCherry-tagged VPS34 complex (2 µM) held on RFP-trap agarose beads, AF488-labelled RAB5A added at varying concentrations; 20 mM HEPES pH 8.0, 100 mM NaCl, 0.5 mM TCEP; 30 min on ice; AF488 intensity normalised by mCherry intensity; GraphPad Prism fit 'One site - specific binding'; fit of the representative experiment; conditions: both partners purified
T5 construct: VPS34 (PIK3C3), human, full length, untagged; VPS15, human, full length; BECLIN1, human, full length; UVRAG, human, full length, untagged; Held on RFP-trap beads by the mCherry on BECLIN1; also called VPS34-CII; WT VPS34-CII; source: Expi293 cells, transfected, purified (IgG beads, TEV cleavage, gel filtration); not shown: ZZ, C-terminal, cleaved; mCherry, N-terminal, kept; copies: + + +

[7] = biological target: T6, mCherry-tagged human VPS34 complex II with VPS34 199-REIE-202>ERIR (human, UniProt Q8NEB9 1-887; Q99570 1-1358; Q14457 1-450; Q9P2Y5 1-699, R199E | E200R | E202R); experiment: as above; conditions: both partners purified
T6 construct: VPS34 (PIK3C3), human, full length, untagged, R199E E200R E202R (199-REIE-202 to ERIR); VPS15, human, full length; BECLIN1, human, full length; UVRAG, human, full length, untagged; also called VPS34-CII REIE >ERIR; CII-ERIR; source: Expi293 cells, transfected, purified (IgG beads, TEV cleavage, gel filtration); not shown: ZZ, C-terminal, cleaved; mCherry, N-terminal, kept; copies: + + +

[8] = biological target: T7, mCherry-tagged human VPS34 complex II with VPS15 579-SHMIT-583>DDMIE (human, UniProt Q8NEB9 1-887; Q99570 1-1358; Q14457 1-450; Q9P2Y5 1-699, S579D | H580D | T583E); experiment: as above; conditions: both partners purified
T7 construct: VPS34 (PIK3C3), human, wild type; BECLIN1, human, full length; UVRAG, human, full length, untagged; also called VPS34-CII VPS15 mutant; CII-DDMIE; source: Expi293 cells, transfected, purified (IgG beads, TEV cleavage, gel filtration); not shown: ZZ, C-terminal, cleaved; mCherry, N-terminal, kept; copies: + + +

[9] = biological target: T8, mCherry-tagged human VPS34 complex II with VPS34 199-REIE-202>AAAA (human, UniProt Q8NEB9 1-887; Q99570 1-1358; Q14457 1-450; Q9P2Y5 1-699, 199-REIE-202>199-AAAA-202); experiment: as above; conditions: both partners purified
T8 construct: VPS34 (PIK3C3), human, full length, untagged, 199-REIE-202 changed to AAAA; VPS15, human, full length; BECLIN1, human, full length; UVRAG, human, full length, untagged; also called VPS34-CII REIE >AAAA; CII-AAAA; source: Expi293 cells, transfected, purified (IgG beads, TEV cleavage, gel filtration); not shown: ZZ, C-terminal, cleaved; mCherry, N-terminal, kept; copies: + + +

[10] = biological target: human VPS34-CII with VPS34 199-REIE-202>199-ERIR-202, untagged (human, UniProt Q8NEB9 1-887; Q99570 1-1358; Q14457 1-450; Q9P2Y5 1-699, R199E | E200R | E202R); experiment: cell-based or functional assay
[11] = biological target: T4, mCherry-tagged human VPS34-CII with …; experiment: cell-based or functional assay
[12] = biological target: mCherry-tagged yeast VPS34-CII (ScVPS34-CII), wild type (S. cerevisiae, UniProt P22543 1-875; P22219 1-1454; Q02948 1-557; Q05919 1-439)
Target sequence in this assay (P22543 whole entry, chain 1 of 4): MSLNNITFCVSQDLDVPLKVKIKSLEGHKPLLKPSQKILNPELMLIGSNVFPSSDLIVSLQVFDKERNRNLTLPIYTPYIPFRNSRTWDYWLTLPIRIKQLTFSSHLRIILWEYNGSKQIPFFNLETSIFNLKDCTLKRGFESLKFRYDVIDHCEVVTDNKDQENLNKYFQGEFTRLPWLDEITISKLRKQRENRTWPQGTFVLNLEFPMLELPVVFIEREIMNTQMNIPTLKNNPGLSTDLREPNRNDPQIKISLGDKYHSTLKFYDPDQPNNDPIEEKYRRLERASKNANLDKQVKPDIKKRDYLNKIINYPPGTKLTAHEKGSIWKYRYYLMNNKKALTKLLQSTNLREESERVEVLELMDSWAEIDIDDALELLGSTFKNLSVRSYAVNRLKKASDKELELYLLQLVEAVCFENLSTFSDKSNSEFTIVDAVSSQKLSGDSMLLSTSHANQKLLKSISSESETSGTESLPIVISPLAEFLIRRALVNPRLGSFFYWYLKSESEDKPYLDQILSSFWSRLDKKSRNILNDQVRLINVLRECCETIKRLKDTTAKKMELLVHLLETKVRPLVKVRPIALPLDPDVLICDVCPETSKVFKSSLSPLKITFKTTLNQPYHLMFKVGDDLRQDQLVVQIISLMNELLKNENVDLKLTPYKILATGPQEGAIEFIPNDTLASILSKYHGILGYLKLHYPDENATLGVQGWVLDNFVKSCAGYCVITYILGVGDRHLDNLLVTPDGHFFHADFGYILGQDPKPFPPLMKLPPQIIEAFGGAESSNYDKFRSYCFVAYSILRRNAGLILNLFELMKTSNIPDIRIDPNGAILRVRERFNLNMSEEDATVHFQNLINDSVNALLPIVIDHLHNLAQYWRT
Target sequence in this assay (P22219 whole entry, chain 2 of 4): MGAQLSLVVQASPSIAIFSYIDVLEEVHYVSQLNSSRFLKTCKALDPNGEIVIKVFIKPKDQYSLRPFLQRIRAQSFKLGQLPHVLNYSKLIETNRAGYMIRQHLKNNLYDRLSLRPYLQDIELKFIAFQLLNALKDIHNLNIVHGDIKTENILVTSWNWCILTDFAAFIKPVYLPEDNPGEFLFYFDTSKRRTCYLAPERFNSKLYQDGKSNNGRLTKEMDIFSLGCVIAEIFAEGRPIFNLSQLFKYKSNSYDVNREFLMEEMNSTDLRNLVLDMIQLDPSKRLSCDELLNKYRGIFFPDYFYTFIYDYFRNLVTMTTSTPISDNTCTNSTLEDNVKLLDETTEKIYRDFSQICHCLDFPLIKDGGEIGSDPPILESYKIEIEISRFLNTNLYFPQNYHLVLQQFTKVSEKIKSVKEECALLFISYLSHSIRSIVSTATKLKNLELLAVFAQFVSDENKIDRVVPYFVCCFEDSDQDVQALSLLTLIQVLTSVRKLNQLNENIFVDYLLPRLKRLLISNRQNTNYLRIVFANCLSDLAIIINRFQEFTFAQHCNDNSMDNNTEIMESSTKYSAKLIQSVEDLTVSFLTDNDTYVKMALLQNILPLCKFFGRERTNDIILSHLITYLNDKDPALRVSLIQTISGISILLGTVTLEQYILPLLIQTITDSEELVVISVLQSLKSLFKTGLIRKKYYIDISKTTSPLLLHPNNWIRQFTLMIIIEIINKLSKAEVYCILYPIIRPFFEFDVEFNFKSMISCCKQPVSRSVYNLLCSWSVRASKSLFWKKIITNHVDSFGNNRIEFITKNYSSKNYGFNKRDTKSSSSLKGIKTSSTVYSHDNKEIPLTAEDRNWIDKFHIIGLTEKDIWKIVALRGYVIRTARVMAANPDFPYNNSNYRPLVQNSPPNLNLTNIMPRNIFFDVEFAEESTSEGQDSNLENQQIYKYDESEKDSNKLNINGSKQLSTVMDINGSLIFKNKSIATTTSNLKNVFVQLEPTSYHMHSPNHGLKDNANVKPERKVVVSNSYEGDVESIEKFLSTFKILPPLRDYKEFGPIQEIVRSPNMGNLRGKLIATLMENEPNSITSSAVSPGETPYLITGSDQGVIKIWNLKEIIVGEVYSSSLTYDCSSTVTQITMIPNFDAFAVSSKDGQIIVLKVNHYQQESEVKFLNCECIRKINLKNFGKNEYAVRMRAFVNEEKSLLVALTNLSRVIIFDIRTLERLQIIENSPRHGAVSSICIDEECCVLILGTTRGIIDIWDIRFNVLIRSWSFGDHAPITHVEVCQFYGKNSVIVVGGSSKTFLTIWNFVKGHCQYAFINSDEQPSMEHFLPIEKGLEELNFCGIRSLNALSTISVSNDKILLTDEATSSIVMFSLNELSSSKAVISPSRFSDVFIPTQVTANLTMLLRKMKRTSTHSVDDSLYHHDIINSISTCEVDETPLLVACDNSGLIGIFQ
Target sequence in this assay (Q02948 whole entry, chain 3 of 4): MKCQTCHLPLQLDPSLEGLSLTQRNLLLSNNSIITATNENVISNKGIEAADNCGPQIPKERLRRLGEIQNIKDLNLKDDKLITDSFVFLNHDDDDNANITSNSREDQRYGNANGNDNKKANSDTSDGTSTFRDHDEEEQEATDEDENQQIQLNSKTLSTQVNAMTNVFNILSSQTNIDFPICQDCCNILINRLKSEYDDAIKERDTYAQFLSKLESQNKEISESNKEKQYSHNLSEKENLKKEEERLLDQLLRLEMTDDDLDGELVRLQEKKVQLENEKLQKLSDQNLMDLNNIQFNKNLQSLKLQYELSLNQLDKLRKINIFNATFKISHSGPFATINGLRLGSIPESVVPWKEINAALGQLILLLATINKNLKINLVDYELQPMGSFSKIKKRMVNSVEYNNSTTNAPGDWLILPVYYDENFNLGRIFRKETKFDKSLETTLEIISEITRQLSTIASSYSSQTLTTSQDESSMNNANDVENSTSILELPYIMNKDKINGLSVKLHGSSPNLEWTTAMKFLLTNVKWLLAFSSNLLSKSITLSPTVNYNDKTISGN
Target sequence in this assay (Q05919 whole entry, chain 4 of 4): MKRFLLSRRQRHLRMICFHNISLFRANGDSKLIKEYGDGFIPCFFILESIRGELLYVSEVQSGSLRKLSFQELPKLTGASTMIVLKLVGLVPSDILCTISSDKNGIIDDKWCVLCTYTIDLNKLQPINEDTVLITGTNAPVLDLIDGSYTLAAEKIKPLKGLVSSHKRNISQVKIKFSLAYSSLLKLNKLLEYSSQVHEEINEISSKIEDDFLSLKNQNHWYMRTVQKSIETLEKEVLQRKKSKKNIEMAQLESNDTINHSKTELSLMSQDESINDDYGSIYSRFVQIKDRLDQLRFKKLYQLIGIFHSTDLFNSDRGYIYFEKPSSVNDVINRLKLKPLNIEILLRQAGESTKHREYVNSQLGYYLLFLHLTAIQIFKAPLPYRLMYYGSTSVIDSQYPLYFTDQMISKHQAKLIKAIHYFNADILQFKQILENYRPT

[13] = biological target: T9, mCherry-tagged yeast VPS34-CII (ScVPS34-CII), wild type (S. cerevisiae, UniProt P22543 1-875; P22219 1-1454; Q02948 1-557; Q05919 1-439); experiment: confocal microscopy bead-based binding assay; RFP-trap beads coated with mCherry-tagged yeast VPS34-CII; Vps21 Q66L-EGFP added at increasing concentrations; conditions: both partners purified
T9 construct: S. cerevisiae Vps34; S. cerevisiae Vps15; S. cerevisiae Vps30, named as a common subunit of the yeast complexes; S. cerevisiae Vps38, named as the unique subunit of yeast complex II; also called WT ScVPS34-CII; yeast complex II; source: S. cerevisiae YOY193, galactose-induced; purified (IgG beads, TEV cleavage, Superdex 200); copies: + + +
T9 sequence (P22543 whole entry, chain 1 of 4): as the sequence (P22543 whole entry, chain 1 of 4) above
T9 sequence (P22219 whole entry, chain 2 of 4): as the sequence (P22219 whole entry, chain 2 of 4) above
T9 sequence (Q02948 whole entry, chain 3 of 4): as the sequence (Q02948 whole entry, chain 3 of 4) above
T9 sequence (Q05919 whole entry, chain 4 of 4): as the sequence (Q05919 whole entry, chain 4 of 4) above

B1: AF488-labelled human RAB5A Q79L C19S C63S, 1-212 (natural protein, UniProt P20339 1-212, looked up)
chain: MASRGATRPNGPNTGNKISQFKLVLLGESAVGKSSLVLRFVKGQFHEFQESTIGAAFLTQTVSLDDTTVKFEIWDTAGLERYHSLAPMYYRGAQAAIVVYDITNEESFARAKNWVKELQRQASPNIVIALSGNKADLANKRAVDFQEAQSYADDNSLLFMETSAKTSMNVNEIFMAIAKKLPKNEPQNPGANSARGRGVDLTEPTQPTRNQC
modifications: AlexaFluor 488 C5 maleimide label (43% labelling efficiency)
notes: human RAB5A residues 1-212, Q79L C19S C63S; The methods say that RAB5A was loaded with GTP or GDP; also called RAB5A-AF488; RAB5-AF488
With B1 the Kd [1] was 2.6 µM, the Kd [2] was 7.4 µM and the “fold tighter binding than the WT complex” value [3] was ~3 fold. The Kd [4] was 27 µM and the Kd [5] was 6 µM.

B2: HsRAB5A Q79L C19S,C63S, 1-212, AF488-labelled (natural protein, human, UniProt P20339 1-212, looked up)
chain: MASRGATRPNGPNTGNKISQFKLVLLGESAVGKSSLVLRFVKGQFHEFQESTIGAAFLTQTVSLDDTTVKFEIWDTAGLERYHSLAPMYYRGAQAAIVVYDITNEESFARAKNWVKELQRQASPNIVIALSGNKADLANKRAVDFQEAQSYADDNSLLFMETSAKTSMNVNEIFMAIAKKLPKNEPQNPGANSARGRGVDLTEPTQPTRNQC
modifications: AlexaFluor 488 C5 maleimide label (43% labelling efficiency)
notes: RAB5A, human, residues 1-212, with Q79L, C19S and C63S; Loaded with GTP or GDP before gel filtration; also called RAB5A-AF488; AF488-RAB5A; source: E. coli OverExpress C41(DE3), purified (HisTrap, ULP1 cleavage, gel filtration)
For B2, the Kd [6] was 6.27 µM, the Kd [7] was 22.1 µM and the Kd [8] was 6.04 µM. For the same binder, the Kd [9] was 3.21 µM and 4.24 µM.

B3: human RAB5A-GTP 1-212 (C19S, C63S, Q79L), unlabelled (natural protein, UniProt P20339 1-212, looked up)
chain: MASRGATRPNGPNTGNKISQFKLVLLGESAVGKSSLVLRFVKGQFHEFQESTIGAAFLTQTVSLDDTTVKFEIWDTAGLERYHSLAPMYYRGAQAAIVVYDITNEESFARAKNWVKELQRQASPNIVIALSGNKADLANKRAVDFQEAQSYADDNSLLFMETSAKTSMNVNEIFMAIAKKLPKNEPQNPGANSARGRGVDLTEPTQPTRNQC
B3 was tested, and the “GUV-based kinase assay: activation of VPS34-CII by membrane-tethered RAB5A (initial rates, AF647-PX signal)” value [10] was 2 fold and the “GUV-based kinase assay: activation of VPS34-CII by membrane-tethered RAB5A (initial rates, AF647-PX signal)” value [11] was ~2 fold.

B4: S. cerevisiae Vps21 Q66L, 1-207, EGFP fusion (natural protein, UniProt P36017 1-207, looked up)
chain: MNTSVTSIKLVLLGEAAVGKSSIVLRFVSNDFAENKEPTIGAAFLTQRVTINEHTVKFEIWDTAGLERFASLAPMYYRNAQAALVVYDVTKPQSFIKARHWVKELHEQASKDIIIALVGNKIDMLQEGGERKVAREEGEKLAEEKGLLFFETSAKTGENVNDVFLGIGEKIPLKTAEEQNSASNERESNNQRVDLNAANDGTSANSA
notes: S. cerevisiae Vps21 residues 1-207, Q66L (GTP-locked); Backbone pOPTH; also called Vps21 Q66L-EGFP; yeast RAB5 orthologue; source: E. coli OverExpress C41(DE3), purified (Ni-NTA, Q column, S75 gel filtration), GTP-loaded; not shown: EGFP, C-terminal, kept
In the case of B4, the Kd [12] is reported as 6 µM and the binding result [13] is reported as “binds”.
